Consider one molecule from PMC5470873.

For this test, the target named is T1, mouse TMEM16A(ac) isoform (mouse), Q8BHY3.
T1 chain: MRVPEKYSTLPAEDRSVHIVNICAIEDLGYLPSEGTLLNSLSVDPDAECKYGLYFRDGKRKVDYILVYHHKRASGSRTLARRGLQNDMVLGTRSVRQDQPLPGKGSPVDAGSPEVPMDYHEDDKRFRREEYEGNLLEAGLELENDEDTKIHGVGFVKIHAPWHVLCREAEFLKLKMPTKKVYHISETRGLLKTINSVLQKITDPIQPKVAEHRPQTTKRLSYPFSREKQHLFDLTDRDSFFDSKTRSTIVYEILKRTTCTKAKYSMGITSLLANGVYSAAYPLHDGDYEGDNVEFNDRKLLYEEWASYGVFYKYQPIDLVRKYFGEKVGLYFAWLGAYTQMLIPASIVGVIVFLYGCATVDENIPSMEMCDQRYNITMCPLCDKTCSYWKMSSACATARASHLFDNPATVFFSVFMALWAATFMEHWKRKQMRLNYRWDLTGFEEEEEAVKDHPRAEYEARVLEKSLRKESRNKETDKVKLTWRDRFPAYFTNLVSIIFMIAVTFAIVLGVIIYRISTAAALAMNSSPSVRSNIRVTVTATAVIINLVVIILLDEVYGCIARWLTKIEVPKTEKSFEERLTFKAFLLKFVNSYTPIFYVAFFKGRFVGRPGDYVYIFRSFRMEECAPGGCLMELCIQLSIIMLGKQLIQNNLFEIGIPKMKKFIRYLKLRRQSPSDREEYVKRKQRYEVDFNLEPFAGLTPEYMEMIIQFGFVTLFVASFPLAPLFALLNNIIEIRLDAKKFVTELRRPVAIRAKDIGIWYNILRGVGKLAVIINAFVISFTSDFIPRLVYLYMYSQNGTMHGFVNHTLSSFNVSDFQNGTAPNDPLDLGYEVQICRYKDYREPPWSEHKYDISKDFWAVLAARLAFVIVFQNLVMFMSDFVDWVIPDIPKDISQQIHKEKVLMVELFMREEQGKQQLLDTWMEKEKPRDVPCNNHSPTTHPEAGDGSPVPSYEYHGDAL
Briefly: cryo-EM structure; purified mTMEM16A at 3 mg/ml in 0.12% digitonin, 20 mM HEPES pH 7.5, 150 mM NaCl, 0.5 mM CaCl2; single particle reconstruction with C2 symmetry imposed, 6.6 Å; poly-alanine model. Particulars: remark: other sources report otherwise.

B1: mouse TMEM16A(ac) isoform, Q8BHY3 1-960 (natural protein)
chain: T1 chain
Turning to B1, the stoichiometry N – broadly, a count of units in the complex or per binding partner – is 2.
